Experiment [1] concerns alanine substituted 13mer tau peptides. The experiment can be described thus: Alanine scanning mutagenesis (ASM) peptide ELISA. The following applies: numbering according to SEQ ID NO: 1; description text 'may be'. It counts as binding, human. Here is the method: To further elucidate epitopes of the scAb panel, and identify the critical amino acids needed for binding, alanine scanning mutagenesis of the parent 13 aa peptides for scAbs CE2, S1D12, CA4 and S1G2 was performed. […] Briefly, 5 μg/ml streptavidin (Thermo Fisher) was adsorbed to Nunc 96-well MaxiSorp plates and following incubation at 37° C., for 1 h, the plates were washed as normal and blocked with 2% MPBS. N-terminally biotinylated peptides (Prolmmune Ltd) were added to the plates and incubated for 1 h at 37° C. Subsequently, test scAbs at starting concentrations of 100-500 nM was added and double diluted across the plate for each peptide and incubated for 1 h at 37° C. Rest of the ELISA was conducted as described above and the plates were read at absorbance 450 nm. Immunoreactivity of the scAb of interest was quantified as the % of scAb was bound for each peptide at a chosen concentration (FIG. 15-20).
A general note: ELISA stands for enzyme-linked immunosorbent assay.

The target in a further experiment is dGAE aggregates (Homo sapiens, UniProt P10636). The experiment can be described thus: Sandwich ELISA on SDS/Triton X-100 treated dGAE aggregates. It counts as binding. Here is the method: For aggregation, 1000 μL 100 μM dGAE+10 μL 10 mM DTT was added to a ‘LoBind’ microfuge tubes and agitated at 700 RPM/37° C., for 24 hours. Resulting sample centrifuged at 17,000×g/4° C., for 60 min and supernatant discarded to remove left over monomer. Pellet resuspended in half the original volume for future experiments and hereafter referred to as ‘aggregates’. 1 μl of aggregates was added to 1 ml of PBS and SDS was added to a final concentration of 1% (w/v). This was left to incubate on lab bench for 1 h with gentle agitation every 15 minutes. In order to neutralise the SDS effect on ELISA, Triton X-100 added to a final concentration of 3% (v/v) and mixed gently by pipetting to prevent any bubble formation. […] Similarly aggregates treated with only SDS or Triton X-100, untreated aggregates, dGAE monomers treated with only SDS or SDS+Titon X-100 were also added to designated wells as controls. All samples were then double diluted across the plate in final volumes of 100 μl. The final column was left with no protein to act as a blank. This was allowed to stand at room temperature for 1 hour followed by the addition of detection scAb-S1G2 at 10 μg/ml. Anti-HuCk HRP labelled secondary antibody was added as described previously and ELISA data generated was represented using the graph below. In addition, limits of detection (LoD) of various core binding antibody pairing for SDS Triton X-100 treated dGAE aggregates were calculated using the above describe ELISA method and substituting capture mAbs and detection scAbs as shown in Table 30.

A further experiment addresses dGA (Homo sapiens, UniProt P10636). The experiment can be described thus: Biacore X100 SPR, scAb captured via anti-HuCk, dGA as analyte. The following applies: dissociation rate. It is filed as binding. Here is the method:
(§1) Surface plasmon resonance (SPR) is widely regarded as the gold standard for real time measurement of protein-protein interactions such as antibody binding. All SPR experiments were carried out using a Biacore X100 machine and HBS EP+ running buffer (GE Healthcare). A ‘capture’ method was followed for affinity measurements, where an anti-human constant kappa chain (HuCk) antibody was conjugated to the surface of a CM5 sensor chip using an amine coupling kit and scAb molecules were immobilised via their HuCk domain. Amine coupling is a very common approach for immobilising the ligand to the chip surface. The chip surface has a dextran matrix derivatised with carboxyl groups, which after activation with N-hydroxysuccinimide (NHS) and 1-ethyl-3-(3-dimethylaminopropyl) carbodiimide (EDC), form reactive succinimide esters which allows the covalent capturing of the ligand via any available primary amine groups (e.g. Lysine) on the ligand (in this case anti-HuCk antibody). The capture antibody was diluted 1/100 in 10 mM Sodium acetate buffer pH 5.0 and passed over the activated chip surface for a period of at least 420 s. Final ligand immobilisation levels over 12,000 RU were deemed to be satisfactory.
(§2) Following immobilisation, the level of each scAb to be captured was identified using the standard SPR equation with a theoretical RMax of 100 RU. Analyte MW refers to the molecular weight of hT40 or dGA/dGAE molecules, while ligand MW refers to the molecular weight of the scAbs tested. RL is the desired capture level and S refers to the stoichiometric ratio:
(§3) The scAb to be tested was added only to flow cell 2 so that flow cell 1 could act as a control to subtract any interaction with the analyte and the chip surface. Both single and multi-cycle runs were utilised using wizards developed in the Biacore X100 control software which are both accepted methods of kinetic analysis (Karlsson, R., et al. Analyzing a kinetic titration series using affinity biosensors (2006) Analytical Biochemistry 349:136-47). The multi-cycle protocol was as follows-Three start-up cycles composed of an initial capture, to the desired level, of the scAb to be tested was performed followed by a 30 s injection of glycine buffer pH 2.0 after each cycle to regenerate the chip surface. The regeneration step removed any captured scAb whilst leaving the capture antibody intact and able to repeat the capture for the next cycle. Following three start-up cycles increasing concentrations (0.15625 nM-100 nM) of the target to be tested were added to the chip surface after the desired scAb capture. The target was added for a 120 s association period and 420 s dissociation period followed by another regeneration, 30 s injection of glycine buffer pH 2.0 in between each cycle.
(§4) The single cycle kinetics protocol was similar and utilised the same level of scAb capture. Three start-up cycles were used followed by 5 increasing concentrations of the analyte (6.25 nM-100 nM) for an association period of 120 s followed by a dissociation period of 420 s for each concentration. In single cycle kinetics the regeneration step was performed only after the final analyte concentration was added. Binding responses were analysed in Biacore X100 evaluation software and data fitted to a 1:1 binding model to obtain kinetic and affinity characterisation.

The next experiment has as its target hT40 (Homo sapiens, UniProt P10636). The experiment can be described thus: Biacore X100 SPR, scAb captured via anti-HuCk, hT40 as analyte. It counts as binding. The note with it: scAb, Table 23, T441 (hT40). The method, then:
as §1, with “The chip surface has a dextran matrix derivatised with carboxyl groups, which after activation with N-hydroxysuccinimide (NHS) and 1-ethyl-3-(3-dimethylaminopropyl) carbodiimide (EDC), form reactive succinimide esters which allows the covalent capturing of the ligand via any available primary amine groups (e.g. Lysine) on the ligand (in this case anti-HuCk antibody).” left out
as §2
as §3, with “The regeneration step removed any captured scAb whilst leaving the capture antibody intact and able to repeat the capture for the next cycle.” left out
as §4

The target in a further experiment is htau40 (Homo sapiens, UniProt P10636). The experiment can be described thus: Biacore X100 SPR of anti-tau mAbs on immobilised htau40. The following applies: mAb, Table 27, immobilised hT40. It is filed as binding. Here is the method: For anti-tau mAb SPR measurements, htau40 was conjugated to the surface of a CM5 sensor chip using amine coupling as explained previously. Briefly, 2 μg/mL htau40 in 10 mM Sodium acetate buffer (pH 4.0) was passed over the activated chip surface (EDC/NHS) in flow cell 2 for a period for 45 s followed by blocking with 1 M ethanolamine-HCl PH 8.5. Flow cell 1 was set up as reference control and blocked simultaneously. Final immobilisation level of htau40 (Rmax) was approximately 250 RU. Following a minimum of three start-up cycles, increasing concentrations (0.78 nM-25 nM) of the mAb in HBS-EP+ buffer was added at a rate of 30 μL/min to the chip. The mAb was added for a 120 s association period and 600 s dissociation period followed by a regeneration cycle of 30 s injection of glycine buffer pH 1.5 in between each cycle. Binding responses were analysed in Biacore X100 evaluation software and data fitted to a 1:1 binding model to obtain kinetic and affinity characterisation.
For anti-tau mAb SPR measurements (Biacore X100™) and epitope mapping, the same methodologies described above (see Example 16) were followed. Kinetic rates and equilibrium binding constants of additional anti-tau mAbs and the regions recognised on hT40 are given in the Table 25 below
(In general: Surface plasmon resonance follows binding to a sensor surface in real time, without labels.)

Where [2] appears, read: S1D12 mAb capture, +SDS Triton dGAE agg.
Where [3] appears, read: direct immobilisation of dGAE aggregates, +SDS Triton.

Residue numbers refer to the chain shown, from its start.

dGAE aggregates, sequence (P10636 614-708): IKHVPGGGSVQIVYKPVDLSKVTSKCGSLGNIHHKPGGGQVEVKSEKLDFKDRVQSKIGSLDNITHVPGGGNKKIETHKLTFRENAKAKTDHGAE
hT40, sequence (P10636 1-441 isoform P10636-8): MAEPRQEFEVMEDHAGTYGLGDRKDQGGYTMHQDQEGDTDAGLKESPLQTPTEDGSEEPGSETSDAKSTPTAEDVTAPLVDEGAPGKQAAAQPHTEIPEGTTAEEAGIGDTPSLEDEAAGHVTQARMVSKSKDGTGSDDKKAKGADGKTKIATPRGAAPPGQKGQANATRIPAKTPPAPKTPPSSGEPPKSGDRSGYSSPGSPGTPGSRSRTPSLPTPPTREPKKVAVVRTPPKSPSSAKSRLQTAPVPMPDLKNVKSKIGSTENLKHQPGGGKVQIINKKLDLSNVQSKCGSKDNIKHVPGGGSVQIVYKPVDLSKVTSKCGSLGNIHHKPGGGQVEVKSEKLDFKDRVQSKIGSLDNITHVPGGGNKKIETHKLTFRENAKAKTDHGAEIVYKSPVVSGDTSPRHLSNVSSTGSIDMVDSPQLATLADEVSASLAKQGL
htau40, sequence (P10636 1-441 isoform P10636-8): as above
dGA, sequence (P10636 614-707): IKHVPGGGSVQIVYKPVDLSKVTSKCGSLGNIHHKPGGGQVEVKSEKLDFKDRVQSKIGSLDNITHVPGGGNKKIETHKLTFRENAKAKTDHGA

B1: CA12: anti-tau clone, SEQ ID NO: 372 (protein)
scFv: QVQLQGSGPSLVKPSQTLSLTCTVSGFSFDSYYVGWVRQAPGKALEWLGNIYSTGRAFYNPALKSRLSITRDTSKSQVSLSVSSVTIEDTALYYCVRGSYYHGGGNGMVDFFDYWSPGLLVTVSSEGKSSGASGESKVDDQVVRTQPSSVSGSLGQRVSITCSGSSSNVGYGNYVGWFQQVPGSAPKLLIYAATSRASGVPDRFSGSRSGNTATLTIDSLQAEDEADYYCSSYQRGNTGVFGSGTRLTVLG
modifications: CA12 amino acid sequence
Consider B1, for which the “Critical residues of the epitope” value in experiment [1] was 370 (K), and/or 374 (H).

B2: CA12 scAb (protein)
scFv: B1 scFv
modifications: left off: small tags and cut ends
On to B2, for which the LoD in the experiment with dGAE aggregates (setting [2]) is 2 ng/mL; in the experiment with dGAE aggregates (setting [3]), 16 ng/mL.

B3: CA9: anti-tau clone, SEQ ID NO: 371 (protein)
scFv: QVQLQESGPSLVKPSQTLSLTCTVSGFSLTSNSVGWVRQAPGKAPEWVAGIDTDGEEGYNPALNSRLSITRDTSKSQVSLSLSSVTSEDTAVYYCGRSYRSDGLAYGYVQAIDYWGPGLLVTVSSEGKSSGASGESKVDDQAVLTQPASVSGSLGQRVSITCSGSFIGISSVGWFQQLPGSGLRTIIVASDGRPSGVPDRFSMSKSGNTATLTISSLQAEDEADYFCGSSDRTQYTGVFGSGTRLTVLG
modifications: CA9 amino acid sequence
Take B3: the “Critical residues of the epitope” value in experiment [1] is 370 (K), and/or 374 (H).

B4: S1E12: anti-tau clone, SEQ ID NO: 218 (protein)
scFv: B3 scFv with T30G, S101A, Q141R, A142V, L144R, A148S
modifications: S1E12 amino acid sequence
As to B4, the “Kd” value with dGA stood at 0.001627 s⁻¹. In addition, in the experiment with hT40, the ka was found to be 385000 M⁻¹ s⁻¹ and the kd was found to be 0.000319 s⁻¹.

B5: CA9 scAb (protein)
scFv: B3 scFv
modifications: left off: small tags and cut ends
For the molecule B5, the LoD worked out at 4 ng/mL with dGAE aggregates (setting [2]) and 40 ng/mL with dGAE aggregates (setting [3]).

B6: CA4: anti-tau clone, SEQ ID NO: 368 (protein)
chain: QVQLQESGPSLVKPSQTLSLTCTVSGFSLTSYSVYWVRQAPGQALEWISIMYASGRVDYNPALKSRLSITRDTSKSQFSLSLSSVTTEDTAVYYCTRGIENWGPGLLVTVSSEGKSSGASGESKVDDDIQVTQSPSSLSASLTERVSITCRTSQSVNNYLSWYQQKPGQAPKLLIYYATRLYTDVPSRFSGSGSGTDYTLTITSLEADDTATYYCLQYDSTPLAFGGGTNVEIK
modifications: CA4 amino acid sequence
For the molecule B6, in the experiment with hT40, the ka is 458100 M⁻¹ s⁻¹ and the kd is 0.001654 s⁻¹. In the experiment with htau40, this molecule had a ka of 1.02e+06 M⁻¹ s⁻¹ and a kd of 0.001276 s⁻¹. The “Critical residues of the epitope” value in experiment [1] is 358 (D), 360 (I), 361 (T), 362 (H) and/or 364 (P).

The values above are taken from US12624096B2, “Anti-tau antibodies and methods of use thereof” (GTInvent Limited, priority 2020, dated 2026).
